The source of these data is patent publication US20110091994A1, “Methods for Screening Compounds for Treating and/or Preventing an Hepatitis C Virus Infection” (priority 2008, published 2011).

The test system of assay [1] is HCV ORFs (Gal4-DB fusions). In kind it is binding, HCV genotype 1b, isolate con1. The conditions noted are these: human protein listed by gene symbol; the value names the HCV protein it interacts with.
Assay [2] concerns the target T1, HCV ORFs (Gal4-DB fusions) (Hepatitis C virus genotype 1b, UniProt Q9WMX2).
T1 construct: expressed in transfected cells; host or cells: Saccharomyces cerevisiae MAV203 (IMAP1) / AH109 (IMAP2)
In kind it is binding, HCV genotype 1b, isolate con1. The settings on record: human protein as prey.

Another assay deals with T2, HCV proteins (Hepatitis C virus genotype 1b, UniProt Q9WMX2).
T2 construct: expressed in transfected cells
Briefly: Validation by Y2H pairwise matrices.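 Also: yeast two-hybrid pairwise tests of interactions first found in Y2H screens of HCV bait proteins against human cDNA libraries.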 The assay is classed as binding.

Setting [3] is: validation of interaction with HCV protein NS3.

Read-outs that look alike come from different tables or passages of the source.
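For IMAP Y2H IMAP1 (number of IST) in this document: yeast two-hybrid screens using HCV genotype 1b proteins fused to Gal4-DB as baits against prey cDNA libraries from human spleen and foetal brain, IMAP1 via transformation and IMAP2 via mating.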
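For IMAP Y2H IMAP2 (number of IST) in this document: yeast two-hybrid screens using HCV genotype 1b proteins fused to Gal4-DB as baits against prey cDNA libraries from human spleen and foetal brain, IMAP1 via transformation and IMAP2 via mating.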
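For Interaction with viral protein in this document: yeast two-hybrid screens using HCV genotype 1b proteins fused to Gal4-DB as baits against prey cDNA libraries from human spleen and foetal brain, IMAP1 via transformation and IMAP2 via mating.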

Description for HCV proteins: A comprehensive interactome map between HCV and cellular proteins was generated by Y2H screens. Twenty seven constructs encoding full-length HCV mature proteins or discrete domains were cloned using a recombination-based cloning system (10) (FIG. 6). Four independent screens were performed with each HCV bait protein, probing two distinct human cDNA libraries (Supplementary Methods). […] Two validation methods were used to assess the confidence of the IMAP Y2H dataset.

B1: ZBTB1 (protein, UniProt Q9Y2K1 1-713, looked up)
Zinc finger and BTB …: MAKPSHSSYVLQQLNNQREWGFLCDCCIAIDDIYFQAHKAVLAACSSYFRMFFMNHQHSTAQLNLSNMKISAECFDLILQFMYLGKIMTAPSSFEQFKVAMNYLQLYNVPDCLEDIQDADCSSSKCSSSASSKQNSKMIFGVRMYEDTVARNGNEANRWCAEPSSTVNTPHNREADEESLQLGNFPEPLFDVCKKSSVSKLSTPKERVSRRFGRSFTCDSCGFGFSCEKLLDEHVLTCTNRHLYQNTRSYHRIVDIRDGKDSNIKAEFGEKDSSKTFSAQTDKYRGDTSQAADDSASTTGSRKSSTVESEIASEEKSRAAERKRIIIKMEPEDIPTDELKDFNIIKVTDKDCNESTDNDELEDEPEEPFYRYYVEEDVSIKKSGRKTLKPRMSVSADERGGLENMRPPNNSSPVQEDAENASCELCGLTITEEDLSSHYLAKHIENICACGKCGQILVKGRQLQEHAQRCGEPQDLTMNGLGNTEEKMDLEENPDEQSEIRDMFVEMLDDFRDNHYQINSIQKKQLFKHSACPFRCPNCGQRFETENLVVEHMSSCLDQDMFKSAIMEENERDHRRKHFCNLCGKGFYQRCHLREHYTVHTKEKQFVCQTCGKQFLRERQLRLHNDMHKGMARYVCSICDQGNFRKHDHVRHMISHLSAGETICQVCFQIFPNNEQLEQHMDVHLYTCGICGAKFNLRKDMRSHYNAKHLKRT
As to B1, in assay [1], the “Interaction with viral protein” value is reported as “NS3”. Moreover, the “IMAP Y2H IMAP1 (number of IST)” value in assay [2] (HCV protein NS3 as bait) was determined as 1. Also, the Y2H matrices entry with HCV proteins (setting [3]) was “+”.

B2: USHBP1 (protein, UniProt Q8N6Y0 1-703, looked up)
Harmonin-binding protein …: MSARATRPRSRRGRHAPPGELDPVAESSEEVEAASGSSKPSFAPPPVSSGLEQLGPMEEVSGQGLGSRTDKKMDGGSGRELASAPEVPHKPAVEAHQAPEAALQYKETVPPGNGAPDVFQTLQHTLSSLEAAAAAWRHQPPSHSGPMEFEGTSEGGAGSLGKQEGAGSCQREAARLAERNAWLRLALSSREDELVRTQASLEAIRAEKETLQKEVQELQDSLLRLEPCPHLSHNQAGGSGSGSSSSEADREPWETQDSFSLAHPLLRRLRSHSSTQILGSLPNQPLSPEMHIMEAQMEQLRGSIEKLKCFNRLLSAVLQGYKGRCEGLSMQLGQREAEATALHLALQYSEHCEEAYRVLLALREADSGAGDEAPMSDLQAAEKEAWRLLAQEEAAMDAGAQQNPQPSPEGSSVDKPTPQEVAFQLRSYVQRLQERRSLMKILSEPGPTLAPMPTVPRAEAMVQAILGTQAGPALPRLEKTQIQQDLVAAREALADLMLRLQLVRREKRGLELREAALRALGPAHVLLLEQLRWERAELQAGGANSSGGHSSGGGSSGDEEEWYQGLPAVPGGTSGIDGGQVGRAWDPEKLAQELAASLTRTLDLQEQLQSLRRELEQVAQKGRARRSQSAELNRDLCKAHSALVLAFRGAHRKQEEQRRKLEQQMALMEAQQAEEVAVLEATARALGKPRPPLPPPQLGDTFL
As to B2, the “Interaction with viral protein” value in assay [1] was “NS3”. Besides, the “IMAP Y2H IMAP1 (number of IST)” value in assay [2] (HCV protein NS3 as bait) was found to be 1. The Y2H matrices result with HCV proteins (setting [3]) is “+”.

B3: XRN2 (protein, UniProt Q9H0D6 1-950, looked up)
5'-3' exoribonuclease 2: MGVPAFFRWLSRKYPSIIVNCVEEKPKECNGVKIPVDASKPNPNDVEFDNLYLDMNGIIHPCTHPEDKPAPKNEDEMMVAIFEYIDRLFSIVRPRRLLYMAIDGVAPRAKMNQQRSRRFRASKEGMEAAVEKQRVREEILAKGGFLPPEEIKERFDSNCITPGTEFMDNLAKCLRYYIADRLNNDPGWKNLTVILSDASAPGEGEHKIMDYIRRQRAQPNHDPNTHHCLCGADADLIMLGLATHEPNFTIIREEFKPNKPKPCGLCNQFGHEVKDCEGLPREKKGKHDELADSLPCAEGEFIFLRLNVLREYLERELTMASLPFTFDVERSIDDWVFMCFFVGNDFLPHLPSLEIRENAIDRLVNIYKNVVHKTGGYLTESGYVNLQRVQMIMLAVGEVEDSIFKKRKDDEDSFRRRQKEKRKRMKRDQPAFTPSGILTPHALGSRNSPGSQVASNPRQAAYEMRMQNNSSPSISPNTSFTSDGSPSPLGGIKRKAEDSDSEPEPEDNVRLWEAGWKQRYYKNKFDVDAADEKFRRKVVQSYVEGLCWVLRYYYQGCASWKWYYPFHYAPFASDFEGIADMPSDFEKGTKPFKPLEQLMGVFPAASGNFLPPSWRKLMSDPDSSIIDFYPEDFAIDLNGKKYAWQGVALLPFVDERRLRAALEEVYPDLTPEETRRNSLGGDVLFVGKHHPLHDFILELYQTGSTEPVEVPPELCHGIQGKFSLDEEAILPDQIVCSPVPMLRDLTQNTVVSINFKDPQFAEDYIFKAVMLPGARKPAAVLKPSDWEKSSNGRQWKPQLGFNRDRRPVHLDQAAFRTLGHVMPRGSGTGIYSNAAPPPVTYQGNLYRPLLRGQAQIPKLMSNMRPQDSWRGPPPLFQQQRFDRGVGAEPLLPWNRMLQTQNAAFQPNQYQMLAGPGGYPPRRDDRGGRQGYPREGRKYPLPPPSGRYNWN
B3: the “Interaction with viral protein” value in assay [1] was “NS3”. Further, in assay [2] (HCV protein NS3 as bait), the “IMAP Y2H IMAP1 (number of IST)” value is 1. For the same molecule, the Y2H matrices result with HCV proteins (setting [3]) was “+”.

B4: ZCCHC7 (protein, UniProt Q8N3Z6 1-543, looked up)
Zinc finger CCHC …: MMFGGYETIEAYEDDLYRDESSSELSVDSEVEFQLYSQIHYAQDLDDVIREEEHEEKNSGNSESSSSKPNQKKLIVLSDSEVIQLSDGSEVITLSDEDSIYRCKGKNVRVQAQENAHGLSSSLQSNELVDKKCKSDIEKPKSEERSGVIREVMIIEVSSSEEEESTISEGDNVESWMLLGCEVDDKDDDILLNLVGCENSVTEGEDGINWSISDKDIEAQIANNRTPGRWTQRYYSANKNIICRNCDKRGHLSKNCPLPRKVRRCFLCSRRGHLLYSCPAPLCEYCPVPKMLDHSCLFRHSWDKQCDRCHMLGHYTDACTEIWRQYHLTTKPGPPKKPKTPSRPSALAYCYHCAQKGHYGHECPEREVYDPSPVSPFICYYDDKYEIQEREKRLKQKIKVLKKNGVIPEPSKLPYIKAANENPHHDIRKGRASWKSNRWPQENKETQKEMKNKNRNWEKHRKADRHREVDEDFPRGPKTYSSPGSFKTQKPSKPFHRSSHYHTSREDKSPKEGKRGKQKKKERCWEDDDNDNLFLIKQRKKKS
Take B4: the “Interaction with viral protein” value in assay [1] is “NS3”. For the same molecule, in assay [2] (HCV protein NS3 as bait), the “IMAP Y2H IMAP1 (number of IST)” value is on record as 2 and the “IMAP Y2H IMAP2 (number of IST)” value came to 1. In addition, the Y2H matrices entry with HCV proteins (setting [3]) is on record as “+”.

B5: TRIM23 (protein, UniProt P36406 1-574, looked up)
E3 ubiquitin-protein ligase …: MATLVVNKLGAGVDSGRQGSRGTAVVKVLECGVCEDVFSLQGDKVPRLLLCGHTVCHDCLTRLPLHGRAIRCPFDRQVTDLGDSGVWGLKKNFALLELLERLQNGPIGQYGAAEESIGISGESIIRCDEDEAHLASVYCTVCATHLCSECSQVTHSTKTLAKHRRVPLADKPHEKTMCSQHQVHAIEFVCLEEGCQTSPLMCCVCKEYGKHQGHKHSVLEPEANQIRASILDMAHCIRTFTEEISDYSRKLVGIVQHIEGGEQIVEDGIGMAHTEHVPGTAENARSCIRAYFYDLHETLCRQEEMALSVVDAHVREKLIWLRQQQEDMTILLSEVSAACLHCEKTLQQDDCRVVLAKQEITRLLETLQKQQQQFTEVADHIQLDASIPVTFTKDNRVHIGPKMEIRVVTLGLDGAGKTTILFKLKQDEFMQPIPTIGFNVETVEYKNLKFTIWDVGGKHKLRPLWKHYYLNTQAVVFVVDSSHRDRISEAHSELAKLLTEKELRDALLLIFANKQDVAGALSVEEITELLSLHKLCCGRSWYIQGCDARSGMGLYEGLDWLSRQLVAAGVLDVA
For the molecule B5, in assay [1], the “Interaction with viral protein” value is “NS3”. Further, the “IMAP Y2H IMAP1 (number of IST)” value in assay [2] (HCV protein NS3 as bait) was found to be 5. Besides, the Y2H matrices entry in the assay with HCV proteins (setting [3]) is “+”.

B6: XAB2 (protein, UniProt Q9HCS7 1-855, looked up)
Pre-mRNA-splicing factor SYF1: MVVMARLSRPERPDLVFEEEDLPYEEEIMRNQFSVKCWLRYIEFKQGAPKPRLNQLYERALKLLPCSYKLWYRYLKARRAQVKHRCVTDPAYEDVNNCHERAFVFMHKMPRLWLDYCQFLMDQGRVTHTRRTFDRALRALPITQHSRIWPLYLRFLRSHPLPETAVRGYRRFLKLSPESAEEYIEYLKSSDRLDEAAQRLATVVNDERFVSKAGKSNYQLWHELCDLISQNPDKVQSLNVDAIIRGGLTRFTDQLGKLWCSLADYYIRSGHFEKARDVYEEAIRTVMTVRDFTQVFDSYAQFEESMIAAKMETASELGREEEDDVDLELRLARFEQLISRRPLLLNSVLLRQNPHHVHEWHKRVALHQGRPREIINTYTEAVQTVDPFKATGKPHTLWVAFAKFYEDNGQLDDARVILEKATKVNFKQVDDLASVWCQCGELELRHENYDEALRLLRKATALPARRAEYFDGSEPVQNRVYKSLKVWSMLADLEESLGTFQSTKAVYDRILDLRIATPQIVINYAMFLEEHKYFEESFKAYERGISLFKWPNVSDIWSTYLTKFIARYGGRKLERARDLFEQALDGCPPKYAKTLYLLYAQLEEEWGLARHAMAVYERATRAVEPAQQYDMFNIYIKRAAEIYGVTHTRGIYQKAIEVLSDEHAREMCLRFADMECKLGEIDRARAIYSFCSQICDPRTTGAFWQTWKDFEVRHGNEDTIKEMLRIRRSVQATYNTQVNFMASQMLKVSGSATGTVSDLAPGQSGMDDMKLLEQRAEQLAAEAERDQPLRAQSKILFVRSDASREELAELAQQVNPEEIQLGEDEDEDEMDLEPNEVRLEQQSVPAAVFGSLKED
As for B6, the “Interaction with viral protein” value in assay [1] is listed as “NS3”. Also, the “IMAP Y2H IMAP1 (number of IST)” value in assay [2] (HCV protein NS3 as bait) was 2. The Y2H matrices entry in the assay with HCV proteins (setting [3]) is recorded as “+”.

B7: SLC31A2 (protein, UniProt O15432 1-143, looked up)
Protein SLC31A2: MAMHFIFSDTAVLLFDFWSVHSPAGMALSVLVLLLLAVLYEGIKVGKAKLLNQVLVNLPTSISQQTIAETDGDSAGSDSFPVGRTHHRWYLCHFGQSLIHVIQVVIGYFIMLAVMSYNTWIFLGVVLGSAVGYYLAYPLLSTA
Turning to B7, the “Interaction with viral protein” value in assay [1] is reported as “CORE”. The “IMAP Y2H IMAP1 (number of IST)” value in assay [2] (HCV protein CORE as bait) turned out to be 1. The Y2H matrices entry with HCV proteins (validation of interaction with HCV protein CORE) is listed as “+”.
